{"source": "paper PMC4156074", "binders": {"B1": {"name": "DX-2930, fully human IgG1 monoclonal antibody (antibody, V domains shown)", "VH": "EVQLLESGGGLVQPGGSLRLSCAASGFTFSHYIMMWVRQAPGKGLEWVSGIYSSGGITVYADSVKGRFTISRDNSKNTLYLQMNSLRAEDTAVYYCAYRRIGVPRRDEFDIWGQGTMVTVSS", "VL": "DIQMTQSPSTLSASVGDRVTITCRASQSISSWLAWYQQKPGKAPKLLIYKASTLESGVPSRFSGSGSGTEFTLTISSLQPDDFATYYCQQYNTYWTFGQGTKVEIK"}}, "key": {"[1]": {"molecular_target": "Full-length human plasma kallikrein, activated form (human) (UniProt P03952)", "sequence (P03952 20-390, chain 1 of 2)": "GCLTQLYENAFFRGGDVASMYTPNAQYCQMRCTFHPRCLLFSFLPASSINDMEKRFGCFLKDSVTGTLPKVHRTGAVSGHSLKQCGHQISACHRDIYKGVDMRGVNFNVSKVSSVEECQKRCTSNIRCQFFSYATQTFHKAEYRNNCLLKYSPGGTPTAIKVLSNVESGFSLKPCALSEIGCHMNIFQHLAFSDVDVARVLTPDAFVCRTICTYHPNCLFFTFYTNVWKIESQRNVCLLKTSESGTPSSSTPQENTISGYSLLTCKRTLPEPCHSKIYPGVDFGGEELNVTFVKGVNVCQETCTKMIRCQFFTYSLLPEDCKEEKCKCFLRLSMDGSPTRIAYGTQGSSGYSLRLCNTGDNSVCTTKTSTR", "sequence (P03952 391-638, chain 2 of 2)": "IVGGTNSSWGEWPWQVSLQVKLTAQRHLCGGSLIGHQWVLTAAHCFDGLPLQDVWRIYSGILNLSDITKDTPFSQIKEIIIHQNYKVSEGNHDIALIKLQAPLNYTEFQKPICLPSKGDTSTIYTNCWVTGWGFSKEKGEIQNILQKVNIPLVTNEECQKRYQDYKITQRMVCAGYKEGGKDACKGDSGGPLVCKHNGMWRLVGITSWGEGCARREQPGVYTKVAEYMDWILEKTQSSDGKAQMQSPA"}, "[2]": {"molecular_target": "pKal from cynomolgus monkey plasma (cynomolgus monkey)", "assay": "enzyme inhibition (steady state, tight-binding fit); DX-2930 on purified pKal of mouse, rat, rabbit and cynomolgus monkey; apparent; data not shown"}, "[3]": {"molecular_target": "Full-length human plasma kallikrein, activated form (human) (UniProt P03952)", "assay": "enzyme inhibition (steady state, tight-binding fit); DX-2930 IgG (up to 10 nM, 1.5-fold dilutions) incubated 1 h at 30 °C with 1 nM pKal, free or preincubated with 600 nM 2-chain HMWK, in 20 mM Tris-HCl pH 7.5, 150 mM NaCl, 1 mM EDTA, 0.1% PEG-8000, 0.1% Triton X-100; substrate H-Pro-Phe-Arg-AMC at 10, 50 or 100 uM; Ki from Ki app by Equation 2, averaged"}}}
{"binder": "B1", "values": [{"measurement": "release of bradykinin from 1-chain HMWK (20 nM) by pKal (0.15 nM) after 1 h with DX-2930, bradykinin ELISA; blocks the proteolysis of HMWK by pKal", "setting": "[1]", "result": 1.3, "unit": "nM"}, {"measurement": "Ki", "setting": "[2]", "result": 0.07, "unit": "nM"}, {"measurement": "Ki", "setting": "[3]", "result": 0.12, "unit": "nM"}]}
